Measurements: PMC12747378, “FtsZ phosphorylation modulates tail-core binding to tune cell division in Bacillus subtilis” (PLOS One, 2025)
Changes are numbered by the printed parent chain. Numbers in names are those of the source. Where “and” joins values, the source holds several entries; their conditions need not be identical. Equal values may be shown once. Read-outs that look alike come from different tables or passages of the source.

T1: FtsZ core (residues 1-315) (Bacillus subtilis, UniProt P17865 1-315)
T1 construct: FtsZ, Bacillus subtilis, globular core, residues 1-315; The printed purification is TALON resin with elution by AcTEV protease; also called FtsZ globular core; tailless core; source: E. coli BL21 Star (DE3), purified
T1 sequence (looked up): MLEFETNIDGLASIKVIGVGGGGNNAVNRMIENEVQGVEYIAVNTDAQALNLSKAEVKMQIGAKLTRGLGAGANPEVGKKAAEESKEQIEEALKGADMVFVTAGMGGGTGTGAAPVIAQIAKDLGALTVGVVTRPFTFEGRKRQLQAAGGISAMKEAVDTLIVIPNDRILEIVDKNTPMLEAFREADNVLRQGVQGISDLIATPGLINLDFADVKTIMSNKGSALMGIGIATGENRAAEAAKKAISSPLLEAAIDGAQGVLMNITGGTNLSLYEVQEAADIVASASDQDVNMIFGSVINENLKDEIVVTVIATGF

T2: FtsZ core (residues 1-315), wild type (Bacillus subtilis, UniProt P17865 1-315)
T2 construct: FtsZ of Bacillus subtilis, globular core, residues 1-315; The plasmid paragraph names 'full-length B. subtilis FtsZ and variants' in pET-28a (His6, TEV site); also called FtsZ Core WT; tailless core; source: E. coli One Shot BL21 Star (DE3), purified (TALON resin, eluted with AcTEV protease); not shown: His6, N-terminal, cleaved
T2 sequence (looked up): T1 sequence (looked up)

T3: FtsZ core (residues 1-315) D210A/D213A (Bacillus subtilis, UniProt P17865 1-315, D210A | D213A)
T3 construct: FtsZ, Bacillus subtilis, globular core, residues 1-315, D210A/D213A; see S1 Appendix; also called acidic patch mutant core; source: E. coli BL21 Star (DE3), purified
T3 sequence (looked up): T1 sequence (looked up) with D210A, D213A

T4: FtsZ core (residues 1-315) M292H/I293W/F294K (Bacillus subtilis, UniProt P17865 1-315, M292H | I293W | F294K)
T4 construct: FtsZ of Bacillus subtilis, globular core, residues 1-315, M292H/I293W/F294K; Vector and tag as for 'FtsZ and variants'; also called FtsZ Core HWK; MIF pocket triple mutant; source: E. coli One Shot BL21 Star (DE3), purified (TALON resin, eluted with AcTEV protease); not shown: His6, N-terminal, cleaved
T4 sequence (looked up): T1 sequence (looked up) with M292H, I293W, F294K

T5: FtsZ core (residues 1-315) D210A/D213A (Bacillus subtilis, UniProt P17865 1-315, D210A | D213A)
T5 construct: FtsZ of Bacillus subtilis, globular core, residues 1-315, D210A/D213A; The sheet's label 'AA' is tied to D210A/D213A by the mean Kd (500.6 nM); Vector and tag as for 'FtsZ and variants'; also called FtsZ Core AA; acidic patch mutant; source: E. coli One Shot BL21 Star (DE3), purified (TALON resin, eluted with AcTEV protease); not shown: His6, N-terminal, cleaved
T5 sequence (looked up): T1 sequence (looked up) with D210A, D213A

B1: MinCN, the 92aa N-terminal domain of MinC (domain or fragment, Bacillus subtilis, UniProt Q01463 1-92, looked up)
chain: MKTKKQQYVTIKGTKNGLTLHLDDACSFDELLDGLQNMLSIEQYTDGKGQKISVHVKLGNRFLYKEQEEQLTELIASKKDLFVHSIDSEVIT
notes: MinC, Bacillus subtilis, N-terminal domain, 92 aa; amplified from B. subtilis genomic DNA; Cloned in pGEX-6P-1 with a PreScission site; cleavage of GST not described; source: E. coli BL21 Star (DE3), purified
B2: FtsZ tail (residues 316-382) (domain or fragment, Bacillus subtilis, UniProt P17865 316-382, looked up)
chain: IEQEKDVTKPQRPSLNQSIKTHNQSVPKREPKREEPQQQNTVSRHTSQPADDTLDIPTFLRNRNKRG
notes: FtsZ, Bacillus subtilis, C-terminal tail, residues 316-382 (67 aa); Cloned in pGEX-6P-3 with a PreScission site; also called C-terminal tail; CTT; source: E. coli BL21 Star (DE3), purified; 15N-labelled in M9 minimal medium for NMR
B3: FtsZ tail (residues 316-382), wild type (domain or fragment, Bacillus subtilis, UniProt P17865 316-382, looked up)
chain: B2 chain
notes: FtsZ of Bacillus subtilis, C-terminal tail, residues 316-382; Cloned into pGEX-6P-3 with a PreScission site; also called FtsZ Tail WT; C-terminal tail; source: E. coli One Shot BL21 Star (DE3), purified
B4: FtsZ tail (residues 316-382) S333A (domain or fragment, Bacillus subtilis, UniProt P17865 316-382, looked up)
chain: B2 chain with S18A
notes: FtsZ, Bacillus subtilis, C-terminal tail, residues 316-382, S333A; pGEX-6P-3 with PreScission site; cleavage of GST not described; also called S333A tail variant; source: E. coli BL21 Star (DE3), purified
B5: FtsZ tail (residues 316-382) K335A/H337A (domain or fragment, Bacillus subtilis, UniProt P17865 316-382, looked up)
chain: B2 chain with K20A, H22A
notes: FtsZ, Bacillus subtilis, C-terminal tail, residues 316-382, K335A/H337A; pGEX-6P-3 with PreScission site; cleavage of GST not described; also called K335A/H337A tail double mutant; source: E. coli BL21 Star (DE3), purified
B6: FtsZ tail (residues 316-382) S333E (domain or fragment, Bacillus subtilis, UniProt P17865 316-382, looked up)
chain: B2 chain with S18E
notes: FtsZ, Bacillus subtilis, C-terminal tail, residues 316-382, S333E; pGEX-6P-3 with PreScission site; cleavage of GST not described; also called S333E tail variant; source: E. coli BL21 Star (DE3), purified
B7: FtsZ tail (residues 316-382) I334E (domain or fragment, Bacillus subtilis, UniProt P17865 316-382, looked up)
chain: B2 chain with I19E
notes: FtsZ, Bacillus subtilis, C-terminal tail, residues 316-382, I334E; pGEX-6P-3 with PreScission site; cleavage of GST not described; also called I334E tail mutant; source: E. coli BL21 Star (DE3), purified
B8: Full-length FtsZ (wild type) (natural protein, Bacillus subtilis, UniProt P17865 1-382, looked up)
chain: MLEFETNIDGLASIKVIGVGGGGNNAVNRMIENEVQGVEYIAVNTDAQALNLSKAEVKMQIGAKLTRGLGAGANPEVGKKAAEESKEQIEEALKGADMVFVTAGMGGGTGTGAAPVIAQIAKDLGALTVGVVTRPFTFEGRKRQLQAAGGISAMKEAVDTLIVIPNDRILEIVDKNTPMLEAFREADNVLRQGVQGISDLIATPGLINLDFADVKTIMSNKGSALMGIGIATGENRAAEAAKKAISSPLLEAAIDGAQGVLMNITGGTNLSLYEVQEAADIVASASDQDVNMIFGSVINENLKDEIVVTVIATGFIEQEKDVTKPQRPSLNQSIKTHNQSVPKREPKREEPQQQNTVSRHTSQPADDTLDIPTFLRNRNKRG
B9: Full-length FtsZ S333A (natural protein, Bacillus subtilis, UniProt P17865 1-382, looked up)
chain: B8 chain with S333A
B10: Full-length FtsZ S333E (natural protein, Bacillus subtilis, UniProt P17865 1-382, looked up)
chain: B8 chain with S333E

Key:
[1] = target: T1, FtsZ core (residues 1-315); assay: ITC; full-length FtsZ or FtsZ core (5 µM) in the cell, FtsZ tail or MinCN (50 µM) in the syringe; TKEG buffer (50 mM Tris pH 8, 50 mM KCl, 1 mM EDTA, 5% glycerol), 25°C; one-site model; conditions: both partners purified
[2] = target: B8; assay: as above; conditions: both partners purified
[3] = target: T2, FtsZ core (residues 1-315), wild type; assay: ITC; 5 µM full-length FtsZ or FtsZ core in the cell, 50 µM FtsZ tail or MinCN in the syringe; TKEG buffer (50 mM Tris pH 8, 50 mM KCl, 1 mM EDTA, 5% glycerol), 25°C; 20 injections of 2 µL; each replicate fitted
[4] = target: T1, FtsZ core (residues 1-315); assay: ITC; displacement: pre-formed MinCN:Core complex (45 µM MinCN + 5 µM Core, 9:1) in the cell, Tail titrated to 10 µM final; TKEG buffer, 25°C; conditions: both partners purified
[5] = target: T3, FtsZ core (residues 1-315) D210A/D213A; assay: ITC; full-length FtsZ or FtsZ core (5 µM) in the cell, FtsZ tail or MinCN (50 µM) in the syringe; TKEG buffer (50 mM Tris pH 8, 50 mM KCl, 1 mM EDTA, 5% glycerol), 25°C; one-site model; conditions: both partners purified
[6] = target: T2, FtsZ core (residues 1-315), wild type; assay: ITC; competition: FtsZ tail titrated into a pre-formed MinCN:Core complex (45 µM MinCN + 5 µM Core, 9:1, ~99% occupancy); TKEG buffer, 25°C; conditions: both partners purified
[7] = target: T4, FtsZ core (residues 1-315) …; assay: ITC; 5 µM full-length FtsZ or FtsZ core in the cell, 50 µM FtsZ tail or MinCN in the syringe; TKEG buffer (50 mM Tris pH 8, 50 mM KCl, 1 mM EDTA, 5% glycerol), 25°C; 20 injections of 2 µL; each replicate fitted; conditions: both partners purified
[8] = target: T5, FtsZ core (residues 1-315) D210A/D213A; assay: as above; conditions: both partners purified
[9] = target: the molecule itself; assay: cell-based or functional assay

Binder: B1
- Kd [1]: 495 nM and 405 nM
- stoichiometry N [1]: 1 ± 0.15
- Kd [2]: > 2000 nM
- Kd [3]: 418 nM and 447 nM and 621 nM
- stoichiometry N [3]: 1.11 and 0.829 and 1.07

Binder: B2
- stoichiometry N [4]: 1
- Kd [1]: 228 ± 24 nM
- Kd [2]: > 2000 nM
- Kd [5]: 501 ± 64 nM

Binder: B3
- stoichiometry N [6]: 1.03 and 0.948 and 0.919 and 0.965
- Kd ([3]; both partners purified): 260 nM and 222 nM and 229 nM and 202 nM
- stoichiometry N ([3]; both partners purified): 1.09 and 1.05 and 1.03 and 1.01
- binding result [7]: binds
- Kd [8]: 428 nM and 529 nM and 545 nM
- stoichiometry N [8]: 1.18 and 1.24 and 1.1 and 1.17

Binder: B4
- Kd [1]: > 2000 nM

Binder: B5
- Kd [1]: > 2000 nM

Binder: B6
- Kd [1]: > 2000 nM

Binder: B7
- Kd [1]: > 2000 nM

Binder: B8
- critical concentration for polymerization (x-intercept of malachite green GTPase rate against FtsZ concentration) [9]: 0.51 µM
- specific GTPase activity above the critical concentration (malachite green assay) [9]: 4 GTP/min/FtsZ

Binder: B9
- critical concentration for polymerization (x-intercept of malachite green GTPase rate against FtsZ concentration) [9]: 0.41 µM
- specific GTPase activity above the critical concentration (malachite green assay) [9]: 4.7 GTP/min/FtsZ

Binder: B10
- critical concentration for polymerization (x-intercept of malachite green GTPase rate against FtsZ concentration) [9]: 0.37 µM
- specific GTPase activity above the critical concentration (malachite green assay) [9]: 5.1 GTP/min/FtsZ
